Experimental data: patent US11517583B2, “Trans-splicing RNA (tsRNA)” (NATIONAL UNIVERSITY OF SINGAPORE, priority 2016, dated 2022)

B1: 3ER_ΔBD-opt: parental 3′ exon replacement tsRNA construct; unstructured 50 base BD to AFP intron 5 with two mismatches, HSVtk (nucleic acid)
DNA: GCTAGCACCTCTCTAAACCTAAATTAAATTTTCTTCTCTAAACCTCTTTCCTAGTTGGACTGACGTCACTCAGTCCTCCTCCTCAGC
B2: p5ER_ΔBD-opt_HH: parental 5′ exon replacement tsRNA construct; unstructured mismatched BD to AFP intron 3, HSVtk, active hammerhead ribozyme (nucleic acid)
DNA: GGTACCCCTCCTTCCTCCTCCTCCTCCTCCTCCTCCTATATACATATACACACACACACACACTCATACCACATTTCAGACATAAAT

Key:
[1] = tested on: AFP pre-mRNA (AFP_E3-E6 mini-gene); experiment: real-time RT-PCR (TaqMan) quantification of trans-splicing towards over-expressed AFP mini-gene in HepG2 cells; assay type: cell-based, human; conditions: 3′ER, HepG2 co-transfected with AFP mini-gene vector, 24 hours post transfection
Description: Transfection of plasmid DNAs: HepG2 cells were transfected at ˜70-90% confluency in a 6-well plate for Western blotting, 12-well for FACS analyses and 24-well plate for all other analyses using either Lipofectamine 3000 (for FACS studies only) or Lipofectamine 2000, (Life Technologies) according to manufacturer's protocol. A total of 1 μg DNA was co-transfected or transfected in a 24-well plate format (500 ng:500 ng of ts construct: AFP_E3_E6 minigene) in over-expression studies and 1 μg of ts constructs only in endogenous studies. For 12-well and 6-well formats, the amount of total DNA was scaled up to 2 μg and 4 μg respectively. For FACS experiments, either 500 ng of pEGFP-C2 plasmid was co-transfected along with the ts and AFP mini-gene vectors to perform experiments with some 3′ER and 5′ER plasmids and dumbbells, or the GFP infused ts vectors were used along with/without AFP mini-gene for over-expression and endogenous studies respectively.
Total RNA Isolation: RNA was isolated 24 hours post-transfection using RNeasy plus kit (Qiagen) following the manufacturer's protocol. RNA concentrations were measured using NanoDrop 2000.
cDNA conversion and real-time RT-PCR: 500 ng RNA from all samples was converted into cDNA using the First Strand SuperScript RTIII (Invitrogen) kit with 200 ng of random hexamers and 10 uM of dNTPs. The reaction conditions were 25° C. for 5 min, followed by 50° C. for 2 h and enzyme inactivation at 70° C. for 15 min. 20 ng of cDNA was used as template for real time RT-PCR. TaqMan quantification was performed in ABI 7900HT of the cDNAs by designing specific probe and primer sets for each cis- and trans-splicing detection. One set of probes were designed in the AFP regions; namely AFP probe exon 5 and AFP probe exon 4 to detect 3′ER and 5′ER cis and trans-splicing respectively. Primers to detect 3′ER cis-splicing along with AFP probe were FP afp exon 5 (set1) and RP afp exon 6 and for 3′ER trans-splicing were FP afp exon 5 (set1) and RP HSVtk. Primers to detect 5′ER cis-splicing along with AFP probe were FP afp exon 3 and RP afp exon 4 (set1) and for 5′ER trans-splicing were FP HSVtk (set1) and RP afp exon 4 (set1). Another set of probes were designed in the distal HSVtk region to detect 3′ER, named HSVtk probe for 3′ER and proximal HSVtk region to detect 5′ER, named HSVtk probe for 5′ER trans-splicing alone. The primers to detect 3′ER trans-splicing along with HSVtk probes were FP afp exon 5 (set2) and RP HSVtk. Primers to detect 5′ER trans-splicing along with HSVtk probes were FP HSVtk (set2) and RP afp exon 4 (set2). The number of cycles in over-expression studies and endogenous studies were 40 and 50 respectively. RT-PCR: Reverse transcription PCR was performed on the cDNA samples using Taq DNA polymerase (Fermentas) with […] of two-step PCR (30+30 cycles or 35+35 cycles) to detect 3′ and 5′ cis and trans-splicing and the bands were visualized on a 1% agarose gel. The primers used to detect 3′ER cis-splicing and mock were FP afp exon 5 (set1) and RP afp exon 6, to detect 3′ER trans-splicing were FP afp exon 5 (set1) and RP HSVtk. To detect 5′ER cis-splicing and mock were primers FP afp exon 3 and RP afp exon 4 (set1), to detect 5′ER trans-splicing were primers FP HSVtk (set1) and RP afp exon 4 (set1). […]

[2] = tested on: HHRz cleavage motif at tsRNA 3′ end; experiment: stem-loop primer based rt-RT-PCR of hammerhead ribozyme (HHRz) cleavage; assay type: cell-based
Source text: FIG. 3 Improved stability at 3′ end of the RNA improves 5′ trans-splicing in correlation with cleavage of hammerhead ribozyme. […] 145. The conserved motifs of stem Ia, Ib and II are highlighted in boxes and stem Ill is designed as a perfect complement to the 3′ end of the ΔBD to make the HH Rz structure. Cleavage motif GUC is shown with a scissor icon. […] R2, correlation coefficient. n=3, linear regression analysis.
That was surprising as the uncleaved RNA comprises a polyA tail and is expected to be exported to the cytoplasm thereby lowering its nuclear concentration and the rate of trans-splicing. We investigated HHRz cleavage by quantifying the cleaved RNA 3′ end using stem-loop primer based rt-RT-PCR (FIG. 3a). This method was proven to efficiently discriminate between perfect primer-matching and extended RNA 3′ ends. The observed 6.2 cycle difference indicated a ribozyme cleavage rate above 90% yielding trans-splicing RNA with an unstructured 3′ terminal BD (FIG. 3a). Unstructured ends of antisense RNA have been reported to be associated with both fast target binding and degradation. […]

Row | Molecule | more potent (trans-splicing) than 3ER_BD-struc1 [1] [fold] | stronger trans-splicing compared with 3ER_ΔBD-opt-inv [1] [fold] | more potent (trans-splicing) than 3ER_BD-struc2 ([1]; p=0.04) [fold] | stronger trans-splicing compared with 3ER_BD-opt ([1]; p=0.04) [fold] | stronger trans-splicing compared with 3ER_BD-opt-inv ([1]; p=0.04) [fold] | ribozyme cleavage rate ([2]; indicated by the cycle difference) | cycle difference, cleaved RNA 3′ end (active versus inactive HHRz motif) ([2]; stem-loop primer rt-RT-PCR) [cycle]
1 | B1 | 4 | 3 | 6 | 4 | 30 |  | 
2 | B2 |  |  |  |  |  | above 90% | 6.2
